The results in this text go back to US20240376163.

In data set [1] the target is T1, GST-tagged VIVIT PPTP.
T1 chain: PVIVITPPTP

Data set [2] deals with T2, GST-tagged CABIN1-L-1-2.
T2 chain: PEITVTPPTP

The target in data set [3] is T3, GST-tagged VIVIT peptide (VIVIT 10-mer).
T3 chain: PVIVITGPHE

B1: JNK1 (activated recombinant kinase) (protein)
chain: MSRSKRDNNFYSVEIGDSTFTVLKRYQNLKPIGSGAQGIVCAAYDAILERNVAIKKLSRPFQNQTHAKRAYRELVLMKCVNHKNIIGLLNVFTPQKSLEEFQDVYIVMELMDANLCQVIQMELDHERMSYLLYQMLCGIKHLHSAGIIHRDLKPSNIVVKSDCTLKILDFGLARTAGTSFMMTPYVVTRYYRAPEVILGMGYKENVDLWSVGCIMGEMVCHKILFPGRDYIDQWNKVIEQLGTPCPEFMKKLQPTVRTYVENRPKYAGYSFEKLFPDVLFPADSEHNKLKASQARDLLSKMLVIDASKRISVDEALQHPYINVWYDPSEAEAPPPKIPDKQLDEREHTIEEWKELIYKEVMDLEERTKNGVIRGQPSPLAQVQQ
Turning to B1, the “in vitro kinase assay (32P incorporation)” value in data set [1] was “ERK2, JNK1, and p38a phosphorylate purified recombinant GST-tagged peptide containing PPTP sequence (CABIN1-L-1-2 and VIVIT PPTP), but not GST-tagged VIVIT peptide”; in data set [2] it was “ERK2, JNK1, and p38a phosphorylate purified recombinant GST-tagged peptide containing PPTP sequence (CABIN1-L-1-2 and VIVIT PPTP), but not GST-tagged VIVIT peptide”; in data set [3] it was “but not GST-tagged VIVIT peptide”.

B2: MKK4 (activated recombinant kinase) (protein)
chain: MAAPSPSGGGGSGGGSGSGTPGPVGSPAPGHPAVSSMQGKRKALKLNFANPPFKSTARFTLNPNPTGVQNPHIERLRTHSIESSGKLKISPEQHWDFTAEDLKDLGEIGRGAYGSVNKMVHKPSGQIMAVKRIRSTVDEKEQKQLLMDLDVVMRSSDCPYIVQFYGALFREGDCWICMELMSTSFDKFYKYVYSVLDDVIPEEILGKITLATVKALNHLKENLKIIHRDIKPSNILLDRSGNIKLCDFGISGQLVDSIAKTRDAGCRPYMAPERIDPSASRQGYDVRSDVWSLGITLYELATGRFPYPKWNSVFDQLTQVVKGDPPQLSNSEEREFSPSFINFVNLCLTKDESKRPKYKELLKHPFILMYEERAVEVACYVCKILDQMPATPSSPMYVD
With B2, in data set [2], the “in vitro kinase assay (32P incorporation)” value is “the MAPK family (EKR, JNK, and p38) and MKK4 directly phosphorylate CABIN1 peptide”.
